The results in this text go back to PMC4974071.

Test [1] addresses T1, BCL11A-S (short isoform of BCL11A), wild-type, Q9H165-3.
T1 chain: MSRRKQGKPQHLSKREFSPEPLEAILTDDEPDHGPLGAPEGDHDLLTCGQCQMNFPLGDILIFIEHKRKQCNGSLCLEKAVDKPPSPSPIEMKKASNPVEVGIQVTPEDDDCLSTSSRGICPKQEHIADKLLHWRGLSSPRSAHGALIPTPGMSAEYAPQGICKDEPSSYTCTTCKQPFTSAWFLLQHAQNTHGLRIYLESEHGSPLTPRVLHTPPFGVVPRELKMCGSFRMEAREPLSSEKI
The test can be described thus: BRET assay. The following applies: chain shown with the change; HEK293 cells; donor Renilla luciferase fusion, acceptor YFP fusion; n = 3; parent: est. 0.36; read off a plot. (In general: Bioluminescence resonance energy transfer reports proximity on the nanometre scale.)

Test [2] concerns the target T2, BCL11A-L (long isoform of BCL11A), wild-type, Q9H165-2.
T2 chain: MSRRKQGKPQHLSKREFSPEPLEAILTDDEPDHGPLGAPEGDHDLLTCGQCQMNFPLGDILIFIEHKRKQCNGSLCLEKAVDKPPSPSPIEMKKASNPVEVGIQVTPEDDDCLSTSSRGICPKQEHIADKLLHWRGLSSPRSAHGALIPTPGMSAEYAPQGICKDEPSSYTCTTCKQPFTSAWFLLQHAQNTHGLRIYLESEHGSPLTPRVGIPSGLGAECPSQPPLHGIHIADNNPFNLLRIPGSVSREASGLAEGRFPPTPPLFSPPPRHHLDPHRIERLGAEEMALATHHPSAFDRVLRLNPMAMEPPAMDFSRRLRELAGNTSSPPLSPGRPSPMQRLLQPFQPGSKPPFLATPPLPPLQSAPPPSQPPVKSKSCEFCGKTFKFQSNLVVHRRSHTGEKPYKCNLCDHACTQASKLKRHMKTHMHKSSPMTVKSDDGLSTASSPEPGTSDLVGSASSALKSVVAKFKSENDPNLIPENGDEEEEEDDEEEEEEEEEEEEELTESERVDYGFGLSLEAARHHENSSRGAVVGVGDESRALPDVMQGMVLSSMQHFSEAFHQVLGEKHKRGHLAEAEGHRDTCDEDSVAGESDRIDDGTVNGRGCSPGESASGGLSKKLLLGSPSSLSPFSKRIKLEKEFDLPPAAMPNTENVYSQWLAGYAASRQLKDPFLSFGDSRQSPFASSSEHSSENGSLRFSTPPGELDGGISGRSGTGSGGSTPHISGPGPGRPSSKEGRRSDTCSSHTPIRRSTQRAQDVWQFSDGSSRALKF
The test can be described thus: BRET assay. As to conditions: chain shown with the change; HEK293 cells; donor Renilla luciferase fusion, acceptor YFP fusion; n = 3; parent: est. 0.30; read off a plot.

B1: BCL11A-L (long isoform of BCL11A), wild-type, Q9H165-2 p.His66Gln (protein)
chain: MSRRKQGKPQHLSKREFSPEPLEAILTDDEPDHGPLGAPEGDHDLLTCGQCQMNFPLGDILIFIEQKRKQCNGSLCLEKAVDKPPSPSPIEMKKASNPVEVGIQVTPEDDDCLSTSSRGICPKQEHIADKLLHWRGLSSPRSAHGALIPTPGMSAEYAPQGICKDEPSSYTCTTCKQPFTSAWFLLQHAQNTHGLRIYLESEHGSPLTPRVGIPSGLGAECPSQPPLHGIHIADNNPFNLLRIPGSVSREASGLAEGRFPPTPPLFSPPPRHHLDPHRIERLGAEEMALATHHPSAFDRVLRLNPMAMEPPAMDFSRRLRELAGNTSSPPLSPGRPSPMQRLLQPFQPGSKPPFLATPPLPPLQSAPPPSQPPVKSKSCEFCGKTFKFQSNLVVHRRSHTGEKPYKCNLCDHACTQASKLKRHMKTHMHKSSPMTVKSDDGLSTASSPEPGTSDLVGSASSALKSVVAKFKSENDPNLIPENGDEEEEEDDEEEEEEEEEEEEELTESERVDYGFGLSLEAARHHENSSRGAVVGVGDESRALPDVMQGMVLSSMQHFSEAFHQVLGEKHKRGHLAEAEGHRDTCDEDSVAGESDRIDDGTVNGRGCSPGESASGGLSKKLLLGSPSSLSPFSKRIKLEKEFDLPPAAMPNTENVYSQWLAGYAASRQLKDPFLSFGDSRQSPFASSSEHSSENGSLRFSTPPGELDGGISGRSGTGSGGSTPHISGPGPGRPSSKEGRRSDTCSSHTPIRRSTQRAQDVWQFSDGSSRALKF
Take B1: the figures for the response in test [1] and in test [2] were 0.013 and 0.11, respectively.

B2: BCL11A-L (long isoform of BCL11A), wild-type, Q9H165-2 p.Cys48Phe (protein)
chain: MSRRKQGKPQHLSKREFSPEPLEAILTDDEPDHGPLGAPEGDHDLLTFGQCQMNFPLGDILIFIEHKRKQCNGSLCLEKAVDKPPSPSPIEMKKASNPVEVGIQVTPEDDDCLSTSSRGICPKQEHIADKLLHWRGLSSPRSAHGALIPTPGMSAEYAPQGICKDEPSSYTCTTCKQPFTSAWFLLQHAQNTHGLRIYLESEHGSPLTPRVGIPSGLGAECPSQPPLHGIHIADNNPFNLLRIPGSVSREASGLAEGRFPPTPPLFSPPPRHHLDPHRIERLGAEEMALATHHPSAFDRVLRLNPMAMEPPAMDFSRRLRELAGNTSSPPLSPGRPSPMQRLLQPFQPGSKPPFLATPPLPPLQSAPPPSQPPVKSKSCEFCGKTFKFQSNLVVHRRSHTGEKPYKCNLCDHACTQASKLKRHMKTHMHKSSPMTVKSDDGLSTASSPEPGTSDLVGSASSALKSVVAKFKSENDPNLIPENGDEEEEEDDEEEEEEEEEEEEELTESERVDYGFGLSLEAARHHENSSRGAVVGVGDESRALPDVMQGMVLSSMQHFSEAFHQVLGEKHKRGHLAEAEGHRDTCDEDSVAGESDRIDDGTVNGRGCSPGESASGGLSKKLLLGSPSSLSPFSKRIKLEKEFDLPPAAMPNTENVYSQWLAGYAASRQLKDPFLSFGDSRQSPFASSSEHSSENGSLRFSTPPGELDGGISGRSGTGSGGSTPHISGPGPGRPSSKEGRRSDTCSSHTPIRRSTQRAQDVWQFSDGSSRALKF
On to B2, for which the response turned out to be 0.009 in test [1] and 0.065 in test [2].

B3: BCL11A-L (long isoform of BCL11A), wild-type, Q9H165-2 p.Thr47Pro (protein)
chain: MSRRKQGKPQHLSKREFSPEPLEAILTDDEPDHGPLGAPEGDHDLLPCGQCQMNFPLGDILIFIEHKRKQCNGSLCLEKAVDKPPSPSPIEMKKASNPVEVGIQVTPEDDDCLSTSSRGICPKQEHIADKLLHWRGLSSPRSAHGALIPTPGMSAEYAPQGICKDEPSSYTCTTCKQPFTSAWFLLQHAQNTHGLRIYLESEHGSPLTPRVGIPSGLGAECPSQPPLHGIHIADNNPFNLLRIPGSVSREASGLAEGRFPPTPPLFSPPPRHHLDPHRIERLGAEEMALATHHPSAFDRVLRLNPMAMEPPAMDFSRRLRELAGNTSSPPLSPGRPSPMQRLLQPFQPGSKPPFLATPPLPPLQSAPPPSQPPVKSKSCEFCGKTFKFQSNLVVHRRSHTGEKPYKCNLCDHACTQASKLKRHMKTHMHKSSPMTVKSDDGLSTASSPEPGTSDLVGSASSALKSVVAKFKSENDPNLIPENGDEEEEEDDEEEEEEEEEEEEELTESERVDYGFGLSLEAARHHENSSRGAVVGVGDESRALPDVMQGMVLSSMQHFSEAFHQVLGEKHKRGHLAEAEGHRDTCDEDSVAGESDRIDDGTVNGRGCSPGESASGGLSKKLLLGSPSSLSPFSKRIKLEKEFDLPPAAMPNTENVYSQWLAGYAASRQLKDPFLSFGDSRQSPFASSSEHSSENGSLRFSTPPGELDGGISGRSGTGSGGSTPHISGPGPGRPSSKEGRRSDTCSSHTPIRRSTQRAQDVWQFSDGSSRALKF
For B3, the response in test [1] was 0.001; in test [2] it was 0.11.
